# Experimental data as given in the DeepSol protein solubility set.
# Test: soluble on expression in E. coli; label from the status in PepcDB or PDB records
row,Sequence,soluble on expression in E. coli
1,MATATPVPPRMGSRAGGPTTPLSPTRLSRLQEKEELRELNDRLAVYIDKVRSLETENSALQLQVTEREEVRGRELTGLKALYETELADARRALDDTARERAKLQIELGKCKAEHDQLLLNYAKKESDLNGAQIKLREYEAALNSKDAALATALGDKKSLEGDLEDLKDQIAQLEASLAAAKKQLADETLLKVDLENRCQSLTEDLEFRKSMYEEEINETRRKHETRLVEVDSGRQIEYEYKLAQALHEMREQHDAQVRLYKEELEQTYHAKLENARLSSEMNTSTVNSAREELMESRMRIESLSSQLSNLQKESRACLERIQELEDLLAKEKDNSRRMLTDKEREMAEIRDQMQQQLNDYEQLLDVKLALDMEISAYRKLLQGEEERLKLSPSPSSRVTVSRASSSRSVRTTRGKRKRVDVEESEASSSVSISHSASATGNVCIEEIDVDGKFIRLKNTSEQDQPMGGWEMIRKIGDTSVSYKYTSRYVLKAGQTVTIWAANAGVTASPPTDLIWKNQNSWGTGEDVKVILKNSQGEEVAQRSTVFKTTIPEEEEEEEEAAGVVVEEELFHQQGTPRASNRSCAIM,soluble
2,MATDTTVQLRAGWQGRFYEDFAVGDVYKHPYGRTVTETDNVWFTNLTMNANPMHFNAAYASGTEFDERLVNGLFVIALSVGMSVVDVSANATANLGYDDIQHHAPVFHGDTLFAESEVLSKRESESRPHVGMVTTELRTYTQDGELVLSLERTPMVRKRGAADPLEHHHHHH,not soluble
3,MATKVYIVYYSMYGHVEKLAQEIRKGAASVDGVEAILWQVPETLQEDVLSKMSAPPKSDAPIITPNELAEADGFIFGFPTRFGMMAAQFKAFLDATGGLWRTQQLAGKPAGIFYSTGSQGGGQETTALTAITQLVHHGMIFVPIGYTFGAGMFEMENVKGGSPYGAGTFAGDGSRQPTELELGQAFHQGKYIAAISKKLKGPAAA,soluble
4,MATLDKFLSIKENDEKTKKKESKKKSSKSNKTSESLVSHDHFELTPEFENQLWKVADKLRKKMEVHQYKYVVLGLIFLRALTCRFYERRKEIEEELSNPNSELYTEDPELRKMILEDEDFYLSEGVLYLPKETRWDYFVENVMSPNIGEIIDTAIEILEEKYPDRLKDVIPKIYAQSPLDNHDYSYLINKFSEISFGKEHRVKDVFGRIYEYFLGKFTEVEGKLGGKFYTPRSLTKLIVDVLDVKGGSIFDPACGSGGFFVSALEKLEREGIDINELSIYGQDSDPMAYRLTKMNLIIRGAEGDIRIDDSYHDDKFMDMTFDYVVANPPFNDSEWDANRIKPDDPRLRIGNKKVPVPPNGNANYMWILHFIYHTAPNGKAGFVMANGALSAGNVEGEIRKAIIENDLVYGIVACPPKLFYNVSLPVSLWFIRKEKPDYMKGKVLFINAKNLYKQISRRQNILTEEHIKKIVDKFRMFESGEDEDKINELGFAKVATIDEIAKNGYVLTPGRYVGVKIEDDGIPFEVKMKEYSEELKKLLDEEEKLRNKVKEILDALGF,soluble
5,MATNAKPVYKRILLKLSGEALQGTEGFGIDASILDRMAQEIKELVELGIQVGVVIGGGNLFRGAGLAKAGMNRVVGDHMGMLATVMNGLAMRDALHRAYVNARLMSAIPLNGVCDNYSWAEAISLLRNNRVVILSAGTGNPFFTTDSAACLRGIEIEADVVLKATKVDGVFTADPAKDPSATMYDQLTYSEVLDKELKVMDLAAFTLARDHKLPIRVFNMNKPGALRRVVMGEKEGTLITELEHHHHHH,not soluble
6,MATPDLTIRGGGIFGLAVAWAAVRRGAKVRLIESARIGAGSSGGVVGALSPHVPEQWNEKKAFQFESLAMGEAWWAAVADASGLPTGYDRLGRFQPLADARAVDHARARAEEARTLWQGRFSWEVVPAGGDFMPESPTGLVIHDTLTARLNPRLAVPALVQAIRAQGGEILIGEGEEAGPVVWATGVAGLEALSQDLGKPVGNGVKGQAMVVALDARDRPQVFGPGLLIVPHADGTTAVGSTAEKDWTAPDTTDAQLDEVHARAVALCPWLEGAPVLTRWAGLRPRARSLAPMLGEWPGRPGQYVANGGFKIGFGMAPKVGEVMAALVLEGRDEIPESFRVEASLKKKGKAEELEHHHHHH,not soluble
7,MATSGTYVTEVPLKGSAKNHYKRWKSENQLFPDAIGHHIQGVTVHEGDWDSHGAIKSWNYTCDGKQEVFKEKRELDDQKMAVTFRGLDGHVMEQLKVYDVIFQFVPKSQEGCVCKVTMFWEKRYEDSPEPIKYMKFVTSLAADMDDHILKNQSKA,soluble
8,MATSKILLYYAFTPLSDPKAVQLWQRELCESLNLRGRILISTHGINGTVGGDIDDCKAYIKKTREYPGFNRMQFKWSEGGAEDFPKLSVKVRDEIVAFGAPDELKVDENGVVGGGVHLKPQQVNELVEARGDEVVFFDGRNAMEAQIGKFKDAVVPDVETTHDFIAEIESGKYDDLKDKPVVTYCTGGIRCEILSSLMINRGFKEVYQIDGGIVRYGEQFGNKGLWEGSLYVFDKRMHMEFGEDYKEVGHCIHCDTPTNKFEHCLNEDDCRELVLMCPDCFANVETRHCKRERCAAIAADFAEQGIDPLVTSLEHHHHHH,soluble
9,MATVNKQAIAAAFGRAAAHYEQHADLQRQSADALLAMLPQRKYTHVLDAGCGPGWMSRHWRERHAQVTALDLSPPMLVQARQKDAADHYLAGDIESLPLATATFDLAWSNLAVQWCGNLSTALRELYRVVRPKGVVAFTTLVQGSLPELHQAWQAVDERPHANRFLPPDEIEQSLNGVHYQHHIQPITLWFDDALSAMRSLKGIGATHLHEGRDPRILTRSQLQRLQLAWPQQQGRYPLTYHLFLGVIARE,not soluble
10,MAVAMDNAILENILRQVRPLIGQGKVADYIPALATVDGSRLGIAICTVDGQLFQAGDAQERFSIQSISKVLSLVVAMRHYSEEEIWQRVGKDPSGSPFNSLVQLEMEQGIPRNPFINAGALVVCDMLQGRLSAPRQRMLEVVRGLSGVSDISYDTVVARSEFEHSARNAAIAWLMKSFGNFHHDVTTVLQNYFHYCALKMSCVELARTFVFLANQGKAIHIDEPVVTPMQARQINALMATSGMYQNAGEFAWRVGLPAKSGVGGGIVAIVPHEMAIAVWSPELDDAGNSLAGIAVLEQLTKQLGRSVY,soluble
11,MAVDMFIKIGDVKGESKDKTHAEEIDVLAWSWGMSQSGSMHMGGGGGAGKVNVQDLSFTKYIDKSTPNLMMACSSGKHYPQAKLTIRKAGGENQVEYLIITLKEVLVSSVSTGGSGGEDRLTENVTLNFAQVQVDYQPQKADGAKDGGPVKYGWNIRQNVQA,soluble
12,MAVGEVMRMEIPAGGDLTVTTPELHVLAVDDSIVDRKVIERLLRISSCKVTTVESGTRALQYLGLDGGKGASNLKDLKVNLIVTDYSMPGLSGYDLLKKIKESSAFREVPVVIMSSENILPRIQECLKEGAEEFLLKPVKLADVKRIKQLIMRNEAEECKILSHSNKRKLQEDSDTSSSSHDDTSIKDSSCSKRMKSESENLFSLL,not soluble
13,MAVLYLVGTPIGNLADITYRAVDVLKRVDMIACEDTRVTSKLCNHYDIPTPLKSYHEHNKDKQTAFIIEQLELGLDVALVSDAGLPLISDPGYELVVAAREANIKVETVPGPNAGLTALMASGLPSYVYTFLGFLPRKEKEKSAVLEQRMHENSTLIIYESPHRVTDTLKTIAKIDATRQVSLGRELTKKFEQIVTDDVTQLQALIQQGDVPLKGEFVILIEGAKANNEISWFDDLSINEHVDHYIQTSQMKPKQAIKKVAEERQLKTNEVYNIYHQIS,not soluble
14,MAVPPTYADLGKSARDVFNKGYGFGLVKLEVKTKSSSGVEFTSSGSSNTDTGKASGNLETKYKMKETGLTFTQKWNTDNTLGTEVALEDKLAKGLKLSLDTTFVPNTGKKSAKLKTSYKRDYANLGIDIDLDLAGPTIYGWGVLGYQGWLAGYQMAFDTAKSRLAQNNFALGYTAGDFQLHTNVNDGTEFGGSVYQKVSKDVETSVSLAWSAGSNNTRFGIGAKYQLDSNTTISAKVNNASLIGVGYTQTLRPGVKLTLSALVNGKNFSAGGHKVGLGFELEA,not soluble
15,MAVRVCCHAPPGVSNHLFTFCAGNLTTGFSGGSVTSQKGGAAGLPTCSRRCPRGCLPGSDPLPRHPRRYAPPVTPPVTPPTTPAPRSRARMLELVFPKDTNYHGTAFGGWVLALMDKAASVAAVRHAGGNVVTARMDGVDFHVPIRVGDAVALDARVIRVGRSSMTIRVDVYRENMASGEQQLATGGLFTFVALGEDGKPRPVPPLPEGSTDSEQPDYEARPLEHHHHHH,not soluble
